The text below walks through data of patent US20250277030A1, “ANTI-NAPI2B ANTIBODIES AND METHODS OF USE” (Zymeworks BC Inc., priority 2022, published 2025).

Positions count from the first letter of the chain named.

The labels stand for the following.
B1: v29451: humanized anti-NaPi2b IgG1/kappa antibody H2L3; VH SEQ ID NO:25, VL SEQ ID NO:30 (antibody, V domains shown)
VH: QVQLVQSGAEVKKPGASVKVSCKASGFTFTSYNVHWVRQAPGQGLEWIAAISPGNGDLSYAQKFQGRVTMTVDTSTSTVYMELSSLRSEDTAVYYCARGRTGMGAVDYWGQGTLVTVSS
VL: DVQMTQSPSSLSASVGDRVTITCRASQDVYSYLNWYQQKPGKAVKLLIYYTSRLQSGVPSRFSGSGSGTDYTLTISSLQPEDIATYYCQQYNIFPWTFGQGTKLEIK
modifications: v29451, v29455, v29459 VH (H2); v29449, v29450, v29451, v29452 VL (L3)
B2: v29460: humanized anti-NaPi2b IgG1/kappa antibody H1L1; VH SEQ ID NO:24, VL SEQ ID NO:28 (antibody, V domains shown)
VH: B1 VH with I48M, A49G, V72R
VL: B1 VL with V2I, V44P, Y71F, I83F
modifications: v29452, v29456, v29460 VH (H1); v29457, v29458, v29459, v29460 VL (L1)
B3: v29454: humanized anti-NaPi2b IgG1/kappa antibody H3L2; VH SEQ ID NO:26, VL SEQ ID NO:29 (antibody, V domains shown)
VH: B1 VH with V20M, V68A, M70L, V79A
VL: B1 VL with I83F
modifications: v29450, v29454, v29458 VH (H3); v29453, v29454, v29455, v29456 VL (L2)
B4: v29457: humanized anti-NaPi2b IgG1/kappa antibody H4L1; VH SEQ ID NO:27, VL SEQ ID NO:28 (antibody, V domains shown)
VH: B1 VH with V20M, V68A, M70L, T74R, V79A
VL: B1 VL with V2I, V44P, Y71F, I83F
modifications: v29449, v29453, v29457 VH (H4); v29457, v29458, v29459, v29460 VL (L1)
B5: v29453: humanized anti-NaPi2b IgG1/kappa antibody H4L2; VH SEQ ID NO:27, VL SEQ ID NO:29 (antibody, V domains shown)
VH: B1 VH with V20M, V68A, M70L, T74R, V79A
VL: B1 VL with I83F
modifications: v29449, v29453, v29457 VH (H4); v29453, v29454, v29455, v29456 VL (L2)
B6: v29458: humanized anti-NaPi2b IgG1/kappa antibody H3L1; VH SEQ ID NO:26, VL SEQ ID NO:28 (antibody, V domains shown)
VH: B1 VH with V20M, V68A, M70L, V79A
VL: B1 VL with V2I, V44P, Y71F, I83F
modifications: v29450, v29454, v29458 VH (H3); v29457, v29458, v29459, v29460 VL (L1)
B7: v29459: humanized anti-NaPi2b IgG1/kappa antibody H2L1; VH SEQ ID NO:25, VL SEQ ID NO:28 (antibody, V domains shown)
VH: B1 VH
VL: B1 VL with V2I, V44P, Y71F, I83F
modifications: v29451, v29455, v29459 VH (H2); v29457, v29458, v29459, v29460 VL (L1)
B8: v29455: humanized anti-NaPi2b IgG1/kappa antibody H2L2; VH SEQ ID NO:25, VL SEQ ID NO:29 (antibody, V domains shown)
VH: B1 VH
VL: B1 VL with I83F
modifications: v29451, v29455, v29459 VH (H2); v29453, v29454, v29455, v29456 VL (L2)
B9: v29450: humanized anti-NaPi2b IgG1/kappa antibody H3L3; VH SEQ ID NO:26, VL SEQ ID NO:30 (antibody, V domains shown)
VH: B1 VH with V20M, V68A, M70L, V79A
VL: B1 VL
modifications: v29450, v29454, v29458 VH (H3); v29449, v29450, v29451, v29452 VL (L3)
B10: v29449: humanized anti-NaPi2b IgG1/kappa antibody H4L3; VH SEQ ID NO:27, VL SEQ ID NO:30 (antibody, V domains shown)
VH: B1 VH with V20M, V68A, M70L, T74R, V79A
VL: B1 VL
modifications: v29449, v29453, v29457 VH (H4); v29449, v29450, v29451, v29452 VL (L3)

In the first data set the target is T1, NaPi2b expressed on IGROV-1 cells (Homo sapiens, UniProt O95436).
T1 construct: IGROV-1 cells express endogenous NaPi2b at a high level; endogenous in cells; host or cells: IGROV-1
T1 sequence (O95436 1-690): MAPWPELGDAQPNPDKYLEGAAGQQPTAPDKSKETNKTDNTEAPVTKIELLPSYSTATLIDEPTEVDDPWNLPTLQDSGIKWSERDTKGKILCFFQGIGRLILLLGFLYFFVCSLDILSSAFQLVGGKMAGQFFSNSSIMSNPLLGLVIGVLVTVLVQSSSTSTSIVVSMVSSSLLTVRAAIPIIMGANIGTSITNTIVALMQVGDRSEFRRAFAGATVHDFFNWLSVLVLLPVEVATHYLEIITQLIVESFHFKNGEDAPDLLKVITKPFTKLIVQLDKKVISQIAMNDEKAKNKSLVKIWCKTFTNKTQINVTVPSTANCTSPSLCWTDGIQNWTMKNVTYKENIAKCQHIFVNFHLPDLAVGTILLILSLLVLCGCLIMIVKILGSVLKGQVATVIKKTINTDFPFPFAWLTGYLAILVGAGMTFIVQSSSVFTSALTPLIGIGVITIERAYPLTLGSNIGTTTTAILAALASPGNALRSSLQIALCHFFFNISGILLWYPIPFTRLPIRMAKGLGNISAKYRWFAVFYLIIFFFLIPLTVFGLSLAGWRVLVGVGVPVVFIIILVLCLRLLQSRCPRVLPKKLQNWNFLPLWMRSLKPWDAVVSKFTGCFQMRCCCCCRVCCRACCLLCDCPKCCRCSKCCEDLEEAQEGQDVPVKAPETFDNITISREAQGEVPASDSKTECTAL
The experiment in a line: Cellular binding of bivalent antibodies to IGROV-1 cells by flow cytometry (Example 13). The note with it: IGROV-1, 24 hours at 4° C.; NB = no cellular binding. The method, then:
IGROV-1 cells express endogenous NaPi2b at a high level.
Briefly, cells were seeded at 50,000 cells/well in conical-bottom 96-well plates and treated with test antibody for 24 hours at 4° C. to prevent internalization. Palivizumab (anti-RSV antibody, v22277) was included as a negative control. […] Following incubation, cells were washed and stained with anti-Human IgG Fc AF647 conjugate (Jackson Immuno Research Labs, West Grove, PA; Cat. No. 109-605-098) at 4° C. for 30 min. Following incubation and washing, fluorescence was detected by flow cytometry on a BD LSRFortessa™ Cell Analyzer (BD Biosciences, Franklin Lake, NJ) with 1,000 minimum events collected per well. The AF647/APC-A GeoMean (fluorescence signal geometric mean, proportional to anti-Human AF647 binding) was calculated for the live cell population using FlowJo™ Version 10.8.1 (BD Biosciences, Franklin Lake, NJ) and plotted for each test antibody using GraphPad Prism Version 9 (GraphPad Software, San Diego, CA).
For orientation: A flow cytometer gives signals particle by particle.
Take B1: the “Bmax (MFI)” value was 46,170 MFI and the “Curve Hill Slope (h)” value is listed as 1.1.

For B2, the “Bmax (MFI)” value is recorded as 40,071 MFI and the “Curve Hill Slope (h)” value stood at 1.2.

As for B3, the “Bmax (MFI)” value was 42,278 MFI and the “Curve Hill Slope (h)” value turned out to be 1.0.

As to B4, the “Bmax (MFI)” value is on record as 44,539 MFI and the “Curve Hill Slope (h)” value was determined as 1.0.

Turning to B5, the “Bmax (MFI)” value is reported as 44,480 MFI and the “Curve Hill Slope (h)” value worked out at 1.2.

Consider B6, for which the “Bmax (MFI)” value is recorded as 40,793 MFI and the “Curve Hill Slope (h)” value is on record as 1.1.

Regarding B7, the “Bmax (MFI)” value is 40,941 MFI and the “Curve Hill Slope (h)” value came out at 1.2.

As to B8, the “Bmax (MFI)” value was 41,917 MFI and the “Curve Hill Slope (h)” value turned out to be 1.1.

As for B9, the “Bmax (MFI)” value is reported as 43,809 MFI and the “Curve Hill Slope (h)” value is on record as 1.2.

On to B10, for which the “Bmax (MFI)” value is given as 44,460 MFI and the “Curve Hill Slope (h)” value was 1.3.

Tested on in a further data set: not listed separately
As to the kind of experiment: Thermal stability by differential scanning calorimetry (DSC). The format is physicochemical. The note with it: 0.4 mg/mL in PBS, scan 20° C. to 100° C. at 60° C./hr. The method, then:
The thermal stability of the humanized antibody variants was assessed by differential scanning calorimetry (DSC) as described below.
400 μL of purified samples primarily at concentrations of 0.4 mg/mL in PBS were used for DSC analysis with a VP-Capillary DSC (Malvern Panalytical Inc., Westborough, MA). At the start of each DSC run, 5 buffer blank injections were performed to stabilize the baseline, and a buffer injection was placed before each sample injection for referencing. Each sample was scanned from 20° C. to 100° C. at a 60° C./hr rate, with low feedback, 8 sec filter, 3 min pre-scan thermostat, and 70 psi nitrogen pressure. The resulting thermograms were referenced and analyzed using Origin 7 software (OriginLab Corporation, Northampton, MA) to determine melting temperature (Tm) as an indicator of thermal stability.
(Differential scanning calorimetry records heat flow against a reference as temperature is scanned.)
Consider B1, for which the “Fab Tm” value worked out at 83.0 °C.

In the case of B2, the “Fab Tm” value worked out at 80.3 °C.

Turning to B3, the “Fab Tm” value came to 79.7 °C.

On to B4, for which the “Fab Tm” value stood at 80.5 °C.

Consider B5, for which the “Fab Tm” value was 78.9 °C.

With B6, the “Fab Tm” value turned out to be 81.6 °C.

Regarding B7, the “Fab Tm” value stood at 83.1 °C.

For the molecule B8, the “Fab Tm” value was determined as 81.5 °C.

For B9, the “Fab Tm” value stood at 81.0 °C.

For the molecule B10, the “Fab Tm” value was 80.0 °C.
